Assay results reported in publication PMC7054171.

Target: GST tagged Cdc42 Q61L (human) (UniProt P60953)
Assay: pull-down

Sequence of GST tagged Cdc42 Q61L (human) (P60953 whole entry Q61L): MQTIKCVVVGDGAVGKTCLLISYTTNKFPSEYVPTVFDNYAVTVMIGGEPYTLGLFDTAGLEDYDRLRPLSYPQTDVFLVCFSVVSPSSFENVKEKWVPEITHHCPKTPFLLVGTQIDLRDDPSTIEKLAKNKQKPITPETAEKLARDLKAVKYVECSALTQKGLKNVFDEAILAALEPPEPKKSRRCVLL

- fold reduction in binding against the lit state variant: > 5 fold
Substance: mVenus-Z-lock-WASP dark (zDK2-GS0-CBD-LOV2, dark state variant) (from UniProt P42768 230-288; O49003 404-546) (designed binder)
